In US20100048462A1, “TRUNCATED PTH PEPTIDES WITH A CYCLIC CONFORMATION” (Zealand Pharma A/S, priority 2006, published 2010):
Bridge positions count the residues as written; N and C are the ends. Square brackets hold non-standard residues; d marks the D form. Peptide text beside a SMILES is read from it. I, II: the chains in the order shown. hArg = N=C(N)NCCCC[C@H](N)C(=O)O; Met(O) = CS(=O)CC[C@H](N)C(=O)O; Ac5c = NC1(C(=O)O)CCCC1; Aib = CC(C)(N)C(=O)O

What was measured:
Saos-2 PTH1R [1] = target: T1, Saos-2 PTH1R (Homo sapiens, UniProt Q03431); test: cAMP-efficacy assay in Saos-2 cells; format: cell-based; conditions: for EC50: cAMP, 100 μM IBMX, 37° C. 15 min, suffix of label = salt tested; for Emax ± SEM: relative effect to the control (SEQ ID NO: 32)
T1 construct: endogenous in cells; host or cells: Saos-2
T1 sequence (Q03431 27-593): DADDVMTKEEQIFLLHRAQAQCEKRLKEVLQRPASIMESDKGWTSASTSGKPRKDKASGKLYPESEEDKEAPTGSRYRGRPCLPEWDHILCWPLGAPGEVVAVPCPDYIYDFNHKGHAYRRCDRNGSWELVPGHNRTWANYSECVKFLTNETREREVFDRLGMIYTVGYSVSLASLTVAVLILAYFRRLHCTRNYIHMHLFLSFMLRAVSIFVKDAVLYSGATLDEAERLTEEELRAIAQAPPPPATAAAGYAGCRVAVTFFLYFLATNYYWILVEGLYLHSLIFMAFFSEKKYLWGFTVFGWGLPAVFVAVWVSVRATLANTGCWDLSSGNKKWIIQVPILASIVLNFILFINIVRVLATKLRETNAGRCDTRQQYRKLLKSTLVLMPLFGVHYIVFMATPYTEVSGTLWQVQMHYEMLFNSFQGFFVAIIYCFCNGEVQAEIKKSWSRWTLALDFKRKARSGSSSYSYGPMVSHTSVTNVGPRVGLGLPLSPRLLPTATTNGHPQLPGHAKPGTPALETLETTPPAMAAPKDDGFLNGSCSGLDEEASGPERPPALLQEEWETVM
Method: Peptides were dissolved in phosphate buffered saline and further diluted in Tyrode's buffer (TB, Sigma-Aldrich) containing 0.1% BSA and 100 μM isobutyl-methyl-xanthine (IBMX, Sigma-Aldrich). Saos-2 cells were seeded at 50,000 cells/well in 96-microtiter plates and grown for two days before the efficacy assays. On the day of analysis, the growth medium was carefully removed by suction. Cells were washed once with 200 μl TB/0.1% BSA. The buffer was replaced with 100 μl reaction mixture (±test peptide), and incubated at 37° C. for 15 min. The reaction was stopped by addition of 25 μl of ice-cold 0.5 M HCl. Cells were in the following incubated on ice for 60 min. 75 μl acetate-buffer, pH6.2, was added to each well of a 96-well cAMP FlashPlate (Perkin-Elmer). […] FlashPlates were incubated overnight at 4° C., emptied by suction and counted in a TopCounter (Packard).
Determinations were performed in single determinations or triplicates at all doses. […] Standards were included as single determinations, duplicates or triplicates in each experiment, preferentially on each plate.
Concentration-dependent cAMP responses were imported into GraphPad Prism vers. 4 (GraphPad Software), transformed and plotted. […] Thus, a four-parameter logistic equation was used for determination of the EC50 values. Curves were fitted with a function for sigmoidal dose response curve (variable slope) non-linear fit Y=Bottom+(Top-Bottom)/(1+10̂((LogEC50−X)*HillSlope)) where X is the logarithm of concentration and Y is the response. Y starts at Bottom and goes to Top with a sigmoid shape. pEC50, Hill-coefficient and the maximally inducible concentration of cAMP (Emax) were evaluated.
Overall statistical differences were analyzed with Statistica (Statsoft) using one-way ANOVA. Post-hoc comparisons were made by the use of Fisher's Least Significance Test. Results were considered significant, when p was lower than 0.05.

Saos-2 PTH1R [2] = target: Saos-2 PTH1R (UniProt Q03431); test: cell-based or functional assay

Which results are given for `CC[C@H](C)[C@H](NC(=O)[C@H](CCC(=O)O)NC(=O)C(C)(C)NC(=O)[C@@H](NC(=O)C1(N)CCCC1)C(C)C)C(=O)N[C@@H](CCC(N)=O)C(=O)N[C@@H](CC(C)C)C(=O)N[C@@H](CCSC)C(=O)N[C@@H](Cc1c[nH]cn1)C(=O)N[C@@H](CC(N)=O)C(=O)N[C@@H](CC(C)C)C(=O)NCC(=O)N[C@@H](CCCCN)C(=O)N[C@@H](Cc1c[nH]cn1)C(=O)N[C@@H](CC(C)C)C(=O)N[C@@H](CC(N)=O)C(=O)N[C@@H](CO)C(N)=O` [SEQ ID NO: 35] (H-[Ac5c]V[Aib]EIQLMHNLGKHLNS-NH2)?
EC50 (Saos-2 PTH1R [1]): 8130 nM; Emax ± SEM (Saos-2 PTH1R [1]): 1.20 ± 0.01

What does the source list for `CC[C@H](C)[C@H](NC(=O)[C@H](CCC(=O)O)NC(=O)C(C)(C)NC(=O)[C@@H](NC(=O)C1(N)CCCC1)C(C)C)C(=O)N[C@@H](CCC(N)=O)C(=O)N[C@@H](CC(C)C)C(=O)N[C@@H](CCSC)C(=O)N[C@@H](Cc1c[nH]cn1)C(=O)N[C@@H](CCC(N)=O)C(=O)N[C@@H](CCCCNC(=N)N)C(=O)N[C@@H](C)C(=O)N[C@@H](CCCCN)C(=O)N[C@@H](Cc1c[nH]c2ccccc12)C(=O)N[C@@H](CC(C)C)C(=O)N[C@@H](CC(N)=O)C(=O)N[C@@H](CC(=O)O)C(=O)O` [SEQ ID NO: 38, H-Ac5c-Val-Aib-Glu-Ile-Gln-Leu-Met-His-Gln-Har-Ala-Lys-Trp-Leu-Asn-Asp-OH] (H-[Ac5c]V[Aib]EIQLMHQ[hArg]AKWLND-OH)?
EC50 (Saos-2 PTH1R [1]): 100 nM; Emax ± SEM (Saos-2 PTH1R [1]): 1.2

With `CC[C@H](C)[C@H](NC(=O)[C@H](CCC(=O)O)NC(=O)C(C)(C)NC(=O)[C@@H](NC(=O)C1(N)CCCC1)C(C)C)C(=O)N[C@@H](CCC(N)=O)C(=O)N[C@@H](CC(C)C)C(=O)N[C@@H](CCSC)C(=O)N[C@@H](Cc1c[nH]cn1)C(=O)N[C@@H](CCC(N)=O)C(=O)N[C@@H](CCCCNC(=N)N)C(=O)N[C@@H](C)C(=O)N[C@H]1CCCCNC(=O)C[C@@H](C(N)=O)NC(=O)[C@H](CC(N)=O)NC(=O)[C@H](CC(C)C)NC(=O)[C@H](Cc2c[nH]c3ccccc23)NC(=O)[C@@H](NC(=O)[C@H](C)NC(=O)[C@H](CCCCNC(=N)N)NC(=O)[C@H](CCC(N)=O)NC(=O)[C@H](Cc2c[nH]cn2)NC(=O)[C@H](CCSC)NC(=O)[C@H](CC(C)C)NC(=O)[C@H](CCC(N)=O)NC(=O)[C@@H](NC(=O)[C@H](CCC(=O)O)NC(=O)C(C)(C)NC(=O)[C@@H](NC(=O)C2(N)CCCC2)C(C)C)[C@@H](C)CC)CCCCNC(=O)C[C@@H](C(N)=O)NC(=O)[C@H](CC(N)=O)NC(=O)[C@H](CC(C)C)NC(=O)[C@H](Cc2c[nH]c3ccccc23)NC1=O` [SEQ ID NO: 39, (H-Ac5c-Val-Aib-Glu-Ile-Gln-Leu-Met-His-Gln-Har-Ala-Lys( )-Trp-Leu-Asn-Asp( )-NH2)2] (I: H-[Ac5c]V[Aib]EIQLMHQ[hArg]AKWLND-NH2 / II: H-[Ac5c]V[Aib]EIQLMHQ[hArg]AKWLND-NH2; amide I:13-II:17, I:17-II:13) as the molecule, how does the “Emax ± SEM” value (Saos-2 PTH1R [1]) read?
The value was 0.95 ± 0.05.

What does the source list for `CC[C@H](C)[C@H](NC(=O)[C@H](CCC(=O)O)NC(=O)C(C)(C)NC(=O)[C@@H](NC(=O)C1(N)CCCC1)C(C)C)C(=O)N[C@@H](CCC(N)=O)C(=O)N[C@@H](CC(C)C)C(=O)N[C@@H](CC[S+](C)[O-])C(=O)N[C@@H](Cc1c[nH]cn1)C(=O)N[C@@H](CCC(N)=O)C(=O)N[C@@H](CCCCNC(=N)N)C(=O)N[C@@H](C)C(=O)N[C@H]1CCCCNC(=O)C[C@@H](C(N)=O)NC(=O)[C@H](CC(N)=O)NC(=O)[C@H](CC(C)C)NC(=O)[C@H](Cc2c[nH]c3ccccc23)NC1=O` (stereo partly drawn) [SEQ ID NO: 40, H-Ac5c-Val-Aib-Glu-Ile-Gln-Leu-Met(O)-His-Gln-Har-Ala-Lys( )-Trp-Leu-Asn-Asp( )-NH2] (H-[Ac5c]V[Aib]EIQL[Met(O)]HQ[hArg]AKWLND-NH2; lactam 13-17)?
EC50 (Saos-2 PTH1R [1]): 126 nM; Emax ± SEM (Saos-2 PTH1R [1]): 1.1

Which Emax, cAMP efficacy assay in Saos-2 cells (39T, trifluoroacetate salt) (relative to control (SEQ ID NO: 32)) (Saos-2 PTH1R [2]) does the source give for “(H-Ac5c-Val-Aib-Glu-Ile-Gln-Leu-Met-His-Gln-Har-Ala-Lys( )-Trp-Leu-Asn-Asp( )-NH2)2 (peptide)” here?
The Emax, cAMP efficacy assay in Saos-2 cells (39T, trifluoroacetate salt) (relative to control (SEQ ID NO: 32)) was 0.95.

What about the pEC50, cAMP efficacy assay in Saos-2 cells (39T, trifluoroacetate salt) (Saos-2 PTH1R [2]) of the same molecule?
Its pEC50, cAMP efficacy assay in Saos-2 cells (39T, trifluoroacetate salt) is 8.3 -log(M).

“H-Ac5c-Val-Ac5c-Glu-Ile-Gln-Leu-Leu-His-Gln-Har-Ala-Lys( )-Trp-Leu-Asn-Asp( )-NH2 (peptide)” was tested. Which Emax, cAMP efficacy assay in Saos-2 cells (14T, trifluoroacetate salt) (relative to control (SEQ ID NO: 32)) (Saos-2 PTH1R [2]) did it give?
The Emax, cAMP efficacy assay in Saos-2 cells (14T, trifluoroacetate salt) (relative to control (SEQ ID NO: 32)) was 1.03.

What about the pEC50, cAMP efficacy assay in Saos-2 cells (14T, trifluoroacetate salt) (Saos-2 PTH1R [2]) of the same molecule?
The pEC50, cAMP efficacy assay in Saos-2 cells (14T, trifluoroacetate salt) was 7.45 -log(M).

With “H-Ac5c-Val-Aib-Glu-Ile-Gln-Leu-Leu-His-Gln-Har-Ala-Lys( )-Trp-Leu-Asp-Asp( )-NH2 (peptide)” as the molecule, how does the Emax, cAMP efficacy assay in Saos-2 cells (22T, trifluoroacetate salt) (relative to control (SEQ ID NO: 32)) (Saos-2 PTH1R [2]) read?
The Emax, cAMP efficacy assay in Saos-2 cells (22T, trifluoroacetate salt) (relative to control (SEQ ID NO: 32)) was 1.08.

What about the pEC50, cAMP efficacy assay in Saos-2 cells (22T, trifluoroacetate salt) (Saos-2 PTH1R [2]) of the same molecule?
The pEC50, cAMP efficacy assay in Saos-2 cells (22T, trifluoroacetate salt) was 7.13 -log(M).

Which results are given for “H-Ac5c-Val-Aib-Glu-Ile-Gln-Leu-Leu-His-Gln-Har-Arg-Lys( )-Trp-Leu-Asn-Asp( )-NH2 (peptide)”?
Emax, cAMP efficacy assay in Saos-2 cells (28T, trifluoroacetate salt) (relative to control (SEQ ID NO: 32)) (Saos-2 PTH1R [2]): 0.95; pEC50, cAMP efficacy assay in Saos-2 cells (28T, trifluoroacetate salt) (Saos-2 PTH1R [2]): 8.27 -log(M)
